Results reported in paper PMC6450946.

Columns and labels:
[1] = molecular target: SRM-HtrM fusion protein (H. marismortui SRM and HtrM joined by a flexible linker) expressed in H. salinarum (Haloarcula marismortui); experiment: SDS-PAGE and Western blot; lysate of transformed H. salinarum (cells lysed in distilled water, sonicated); detection with Penta-His HRP conjugate
[2] = molecular target: HtrM, cognate transducer of SRM from Haloarcula marismortui, as the C-terminal part of the SRM-HtrM fusion protein (Haloarcula marismortui)
[3] = molecular target: HtrI, cognate transducer of SRI from Haloarcula marismortui, as part of the HmSRI-HtrI fusion protein (Haloarcula marismortui)

“SRM-HtrM fusion protein (H. marismortui SRM and HtrM joined by a flexible linker) expressed in H. salinarum” gave a stoichiometry N [1] of 2.

B1: Sensory rhodopsin SRM from Haloarcula marismortui, as the N-terminal part of the SRM-HtrM fusion protein (receptor)
chain: MAQEIVWYGAGAGAFFVSAVVFVWFAATRGNIRSSFYYLPPIHTSVAGAAYVAMALIAGGQLGDTVSITTLRFADWIVSTPIITYYLARLAGVDTQTRRLAVAANVVMIGVGYGFVSMSGSLRWIAFAVSTVAFIGLLYLYIKTFARKINAATASVRSLFQSLRDLTVVTWSLYPVVYFLGPLGTGIIQAPDLNFLVAVLDTIAKVGFMSILLVRYNSVETFVDSWSVAPAK
B1 showed a Photocycle kinetics (Tau value) of detergent-solubilized HmSRM-HtrM fusion, acidic (pH 6.1-6.5) [2] of 4.05 s and a Photocycle kinetics (Tau value) of detergent-solubilized HmSRM-HtrM fusion, alkaline (pH 7.6-7.9) [2] of 5.62 s.

B2: Sensory rhodopsin I from Haloarcula marismortui, as part of the HmSRI-HtrI fusion protein (receptor)
chain: MDAVSVVYGITAAGFAVGVAIVGFLYASLEGSDERPILAALALIPGVAGISYVAMVFGIGTVTIGETTLVGFRYLDWVVTTPLLVGFIGYTAGASRRAIFGVMAADALMILAGVGAVVAAGTLKWALFGVSAVFHISLFAYLYLIFPRSVPDDPQRIGLFSLLKNHVGLLWIAYPLVWLAGPEGLGFATYVGVSITYAFLDLLAKVPYVYFFYARRQVFATKLLRDSGDTTVTPAD
For B2, the Photocycle kinetics (Tau value) of detergent-solubilized HmSRI-HtrI fusion, acidic (pH 6.1-6.5) [3] was 2.38 s and the Photocycle kinetics (Tau value) of detergent-solubilized HmSRI-HtrI fusion, alkaline (pH 7.6-7.9) [3] was 4.49 s.
